Assay results: patent publication US20240018252A1
Changes are numbered by the printed parent chain. Names and notes keep the numbering of the source. Values joined by “and” are separate entries in the source; they are usually repeats but may differ in a detail not shown here. Equal entries are not always repeated.

B1: h25A8-B5_Ep (bispecific antibody, part only; not given: anti-EpCam arm, constant regions, V domains shown, not shown: another chain or arm of the molecule; a dimerising Fc or GST; small tags and cut ends)
VH: EVQLVESGGGLVKPGGSLRLSCAASGFTFSTYAMNWVRQAPGKGLEWVGRIRSKINNYATYYAESVKGRFTISRDDSKNTLYLQMNSLKTEDTAVYYCVRHETLRSGISWFASWGQGTLVTVSS
VL: QAVVTQEPSLTVSPGGTVTLTCRSSTGAVTTSNYANWVQQKPGQAPRGLIGGTNTRAPGTPARFSGSLLGGKAALTLSGAQPEDEAEYYCVLWYNNYWVFGGGTKLTVL
B2: h25A8-B13_Ep (bispecific antibody, part only; not given: anti-EpCam arm, constant regions, V domains shown, not shown: another chain or arm of the molecule; a dimerising Fc or GST; small tags and cut ends)
VH: B1 VH
VL: B1 VL with S24T, Y97H
B3: h25A8-C8_Ep (bispecific antibody, part only; not given: anti-EpCam arm, constant regions, V domains shown, not shown: another chain or arm of the molecule; a dimerising Fc or GST; small tags and cut ends)
VH: B1 VH with S30N
VL: B1 VL with Y97H
B4: h25A8-B8_Ep (bispecific antibody, part only; not given: anti-EpCam arm, constant regions, V domains shown, not shown: another chain or arm of the molecule; a dimerising Fc or GST; small tags and cut ends)
VH: B1 VH
VL: B1 VL with Y97H
B5: h25A8-B12_Ep (bispecific antibody, part only; not given: anti-EpCam arm, constant regions, V domains shown, not shown: another chain or arm of the molecule; a dimerising Fc or GST; small tags and cut ends)
VH: B1 VH
VL: B1 VL with S24A, Y97H
B6: h2B4-1d_Ep (bispecific antibody, part only; not given: anti-EpCam arm, constant regions, V domains shown, not shown: another chain or arm of the molecule; a dimerising Fc or GST; small tags and cut ends)
VH: EVQLVESGGGLVQPGGSLRLSCAASGFTFSDYYMTWVRQAPGKGLEWVAFIRNRARGYTSDHNASVKGRFTISRDNAKNSLYLQMNSLRAEDTAVYYCARDRPSYYVLDYWGQGTTVTVSS
VL: DIVMTQSPDSLAVSLGERATINCTSSQSLFNVRSRKNYLAWYQQKPGQPPKLLISWASTRESGVPDRFSGSGSGTDFTLTISSLQAEDVAVYYCKQSYDLFTFGSGTKLEIK
B7: h2B4-hnpsTK_Ep (bispecific antibody, part only; not given: anti-EpCam arm, constant regions, V domains shown, not shown: another chain or arm of the molecule; a dimerising Fc or GST; small tags and cut ends)
VH: B6 VH with A64P
VL: B6 VL with T24K
B8: h2B4-TK_Ep (bispecific antibody, part only; not given: anti-EpCam arm, constant regions, V domains shown, not shown: another chain or arm of the molecule; a dimerising Fc or GST; small tags and cut ends)
VH: B6 VH
VL: B6 VL with T24K
B9: h2B4-yaesTK_Ep (bispecific antibody, part only; not given: anti-EpCam arm, constant regions, V domains shown, not shown: another chain or arm of the molecule; a dimerising Fc or GST; small tags and cut ends)
VH: B6 VH with H62Y, N63A, A64E
VL: B6 VL with T24K
B10: A02_Rd4_6nM_C01 N297Q/K222R Aclys vc0101 (antibody, V domains shown)
VH: EVQLLESGGGLVQPGGSLRLSCAASGFTFSSYAMNWVRQAPGKGLEWVSAITASGGSTYYADSVKGRFTISRDNSKNTLYLQMNSLRAEDTAVYYCARYWPMSLWGQGTLVTVSS
VL: EIVLTQSPGTLSLSPGERATLSCRASQSVSAYYLAWYQQKPGQAPRLLMYDASIRATGIPDRFSGSGSGTDFTLTISRLEPEDFAVYYCQQYERWPLTFGQGTKVEIK
modifications: N297Q and K222R (EU) in the human IgG1 constant region; AcLys-Val-Cit-PABC-Aur0101 joined by transglutaminase to the glutamine at 297
B11: Combo_Rd4_0.6nM_C29 LCQ05/N297Q/K222R Aclys vc0101 (antibody, human IgG1, part only)
heavy: B10 VH with A33P, N35S, T52G, A53G, T58L, Y59P, S103D, L104I
light: B10 VL with A31S, Y32S, E93Q, R94S
chain: GGLLQGPP
modifications: LCQ05 tag; Aclys vc0101 drug conjugate
B12: Combo_Rd4_0.6nM_C29 N297Q/K222R Aclys vc0101 (antibody, V domains shown)
VH: B10 VH with A33P, N35S, T52G, A53G, T58L, Y59P, S103D, L104I
VL: B10 VL with A31S, Y32S, E93Q, R94S
modifications: N297Q and K222R (EU) in the human IgG1 constant region; AcLys-Val-Cit-PABC-Aur0101 joined by transglutaminase to the glutamine at 297
B13: Combo_Rd4_0.6nM_C29 H7c/N297A/K222R AmPEG6 Aur3377 (antibody, V domains shown)
VH: B10 VH with A33P, N35S, T52G, A53G, T58L, Y59P, S103D, L104I
VL: B10 VL with A31S, Y32S, E93Q, R94S
modifications: H7c tag LLQG (SEQ ID NO: 454), N297A and K222R (EU) in the human IgG1 heavy chain constant region; amino-PEG6-C2-Aur3377 joined by transglutaminase
B14: Combo_Rd4_0.6nM_C29 LCQ05/K222R Aclys vc0101 (antibody, human IgG1, part only)
heavy: B10 VH with A33P, N35S, T52G, A53G, T58L, Y59P, S103D, L104I
light: B10 VL with A31S, Y32S, E93Q, R94S
chain: GGLLQGPP
modifications: LCQ05 tag; Aclys vc0101 drug conjugate
B15: A02_Rd4_6nM_C16 N297Q/K222R Aclys vc0101 (antibody, V domains shown)
VH: B10 VH with T52S, A53D, S54F, S103D, L104I
VL: B10 VL with A31D, Y32L, E93Q, R94T
modifications: N297Q and K222R (EU) in the human IgG1 constant region; AcLys-Val-Cit-PABC-Aur0101 joined by transglutaminase to the glutamine at 297
B16: Combo_Rd4_0.6nM_C29 H7c/N297A/K222R AmPEG6 Aur0131 (antibody, V domains shown)
VH: B10 VH with A33P, N35S, T52G, A53G, T58L, Y59P, S103D, L104I
VL: B10 VL with A31S, Y32S, E93Q, R94S
modifications: H7c tag LLQG (SEQ ID NO: 454), N297A and K222R (EU) in the human IgG1 heavy chain constant region; amino-PEG6-C2-Aur0131 joined by transglutaminase
B17: A02_Rd4_0.6nM_C01/h2B4 anti-BCMA/CD3 bispecific (bispecific antibody, V domains shown)
VH 1: B10 VH with T52L, A53S, S103D, L104I
VL 1: B10 VL with A25G, S26G, A31S, Y32S, E93Q, R94S
VH 2: B6 VH
VL 2: B6 VL
B18: P5A2/h2B4 anti-BCMA/CD3 bispecific (bispecific antibody, V domains shown)
VH 1: B10 VH with T52S, A53D, S103D, L104I
VL 1: B10 VL with A31S, Y32S, E93G, R94S
VH 2: B6 VH
VL 2: B6 VL
B19: Combo_Rd4_0.6nM_C29/h2B4 anti-BCMA/CD3 bispecific (bispecific antibody, V domains shown)
VH 1: B10 VH with A33P, N35S, T52G, A53G, T58L, Y59P, S103D, L104I
VL 1: B10 VL with A31S, Y32S, E93Q, R94S
VH 2: B6 VH
VL 2: B6 VL
B20: A02_Rd4_6nM_C16/h2B4 anti-BCMA/CD3 bispecific (bispecific antibody, V domains shown)
VH 1: B10 VH with T52S, A53D, S54F, S103D, L104I
VL 1: B10 VL with A31D, Y32L, E93Q, R94T
VH 2: B6 VH
VL 2: B6 VL
B21: COMBO_Rd4_0.6nM_C22/h2B4 anti-BCMA/CD3 bispecific (bispecific antibody, V domains shown)
VH 1: B10 VH with T52S, A53D, T58R, Y59W, A97T, S103D, L104I
VL 1: B10 VL with Q27V, S28R, A31S, Y32T, E93M, R94K
VH 2: B6 VH
VL 2: B6 VL
B22: C01_Rd4_6nM_C12/h2B4 anti-BCMA/CD3 bispecific (bispecific antibody, V domains shown)
VH 1: B10 VH with A33P, N35S, T52G, A53G, S57W, T58S, S103D, L104S
VL 1: B10 VL with R24W, A25L, A31S, Y32T, M49I, I54S, T57P, E93S, R94E
VH 2: B6 VH
VL 2: B6 VL
B23: P5C1/h2B4 anti-BCMA/CD3 bispecific (bispecific antibody, V domains shown)
VH 1: B10 VH with A33P, N35S, T52G, A53G, S103D, L104S
VL 1: B10 VL with A31S, Y32T, M49I, I54S, T57P, E93S, R94T, W95S
VH 2: B6 VH
VL 2: B6 VL
B24: A02_Rd4_6nM_C01/h2B4 anti-BCMA/CD3 bispecific (bispecific antibody, V domains shown)
VH 1: B10 VH
VL 1: B10 VL
VH 2: B6 VH
VL 2: B6 VL

target: human CD3 (huCD3ed) (human) (UniProt P07766); assay: Biacore SPR, bispecific hIgG2dA format, 37 C; CD3 antigen not given
Sequence (P07766 23-126, chain 1 of 2): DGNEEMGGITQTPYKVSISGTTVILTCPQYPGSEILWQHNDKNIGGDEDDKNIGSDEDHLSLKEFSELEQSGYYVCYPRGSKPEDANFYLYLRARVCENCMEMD
Sequence (P04234 22-105, chain 2 of 2, further chain): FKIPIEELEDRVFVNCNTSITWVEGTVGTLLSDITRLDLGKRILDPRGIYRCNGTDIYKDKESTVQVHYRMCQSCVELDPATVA

| Kd | koff | kon | t½ | Binder |
| --- | --- | --- | --- | --- |
| 45000 pM | 0.0581 s⁻¹ | 1.29e+06 M⁻¹ s⁻¹ | 12 s | B1 |
| 18300 pM | 0.0219 s⁻¹ | 1.2e+06 M⁻¹ s⁻¹ | 31.8 s | B2 |
| 25100 pM | 0.0301 s⁻¹ | 1.2e+06 M⁻¹ s⁻¹ | 22.8 s | B3 |
| 18700 pM | 0.0222 s⁻¹ | 1.19e+06 M⁻¹ s⁻¹ | 31.2 s | B4 |
| 21000 pM | 0.0241 s⁻¹ | 1.15e+06 M⁻¹ s⁻¹ | 28.8 s | B5 |
| 40400 pM | 0.0237 s⁻¹ | 586000 M⁻¹ s⁻¹ | 29.4 s | B6 |
| 31200 pM | 0.0235 s⁻¹ | 754000 M⁻¹ s⁻¹ | 29.4 s | B7 |
| 31000 pM | 0.0213 s⁻¹ | 687000 M⁻¹ s⁻¹ | 32.4 s | B8 |
| 54400 pM | 0.0258 s⁻¹ | 474000 M⁻¹ s⁻¹ | 27 s | B9 |

target: human BCMA on BCMA-expressing tumor cells (human) (UniProt Q02223); assay: cell-based or functional assay
Sequence (Q02223 whole entry): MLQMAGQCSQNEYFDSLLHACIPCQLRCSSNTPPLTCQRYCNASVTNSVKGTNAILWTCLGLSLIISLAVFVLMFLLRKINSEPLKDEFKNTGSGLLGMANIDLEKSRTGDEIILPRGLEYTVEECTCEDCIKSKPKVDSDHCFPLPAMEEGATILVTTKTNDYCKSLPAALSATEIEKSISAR

| Binder | EC50, cell viability (CellTiter-Glo, 96 h), KMS12BM LUCGFP (+) | EC50, cell viability (CellTiter-Glo, 96 h), L363 LUCGFP (+) | EC50, cell viability (CellTiter-Glo, 96 h), MM1.S LUCGFP (BCMA++) |
| --- | --- | --- | --- |
| B10 | 18.7 nM and 2.8 µg/mL | 2.53 nM and 0.38 µg/mL | 0.26 nM and 0.04 µg/mL |
| B11 | 1.19 nM and 0.18 µg/mL | 1.05 nM and 0.16 µg/mL | 0.34 nM and 0.05 µg/mL |
| B12 | 0.99 nM and 0.15 µg/mL | 0.66 nM and 0.1 µg/mL | 0.11 nM and 0.02 µg/mL |
| B13 | 5.01 nM and 0.75 µg/mL | 1.36 nM and 0.2 µg/mL | 0.3 nM and 0.05 µg/mL |
| B14 | 10.9 nM and 1.64 µg/mL | 1.67 nM and 0.25 µg/mL | 0.13 nM and 0.02 µg/mL |
| B15 | 38.7 nM and 5.81 µg/mL | 9.68 nM and 1.45 µg/mL | 0.8 nM and 0.12 µg/mL |
| B16 | 0.85 nM and 0.13 µg/mL | 0.81 nM and 0.12 µg/mL | 0.23 nM and 0.03 µg/mL |

target: human BCMA (B-Cell Maturation Antigen) on myeloma cells (human) (UniProt Q02223); assay: cell-based or functional assay
Sequence (Q02223 whole entry): as above

| Binder | EC50 (nM), killing of primary myeloma cells in bone marrow mononuclear cells of patient MM00146 (flow cytometry, day 5) | EC50, T-cell mediated cytotoxicity (LDH release, 20 h) on KMS12BM (BCMA+) cells | EC50, T-cell mediated cytotoxicity (LDH release, 20 h) on KMS12PE (BCMA+++) cells | EC50, T-cell mediated cytotoxicity (LDH release, 20 h) on MOLP8 (MOLP8+) cells | EC50 (nM), killing of primary myeloma cells, patient MM00146, E:T 1:1 | EC50 (nM), killing of primary myeloma cells, patient MM00147, E:T 2:1 | EC50 (nM), killing of primary myeloma cells, patient MM00151, E:T 3:1 | EC50 (nM), killing of primary myeloma cells, patient MM00152, E:T 1:2 |
| --- | --- | --- | --- | --- | --- | --- | --- | --- |
| B17 | 0.064 nM | 78 pM | 73 pM | 550 pM |  |  |  |  |
| B18 | 0.946 nM | 1510 pM | 371 pM | 5230 pM |  |  |  |  |
| B19 |  | 49 pM | 175 pM | 201 pM | 0.035 nM | 0.031 nM | 0.02 nM | 0.289 nM |
| B20 | 0.029 nM | 52 pM | 186 pM | 315 pM |  |  |  |  |
| B21 |  | 49 pM | 115 pM | 65 pM |  |  |  |  |
| B22 |  | 415 pM | 189 pM | 850 pM |  |  |  |  |
| B23 |  | 4120 pM | 581 pM |  |  |  |  |  |
| B24 |  | 57 pM |  | 60 pM |  |  |  |  |
